Test results as given in patent US20240425612A1.

Columns and labels:
[1] = target: hFcγRIIIa-158F-streptavidin-His (human) (UniProt P08637); experiment: BLI
[2] = target: hFcγRIIIa-158V-streptavidin-His (human) (UniProt P08637); experiment: BLI
hFcγRIIIa-158V-streptavidin-His (human), sequence (P08637 17-208 F176V): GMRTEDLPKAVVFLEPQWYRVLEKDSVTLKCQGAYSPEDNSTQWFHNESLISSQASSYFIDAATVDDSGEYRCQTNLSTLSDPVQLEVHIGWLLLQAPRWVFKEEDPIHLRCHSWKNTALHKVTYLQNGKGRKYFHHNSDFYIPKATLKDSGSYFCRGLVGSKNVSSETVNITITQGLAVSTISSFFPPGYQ

hFcγRIIIa-158F-streptavidin-His (human), sequence (P08637 17-208): as the sequence (P08637 17-208 F176V) above, with V160F counted along it

- Kd [1]: 67.3 nM
- Kd [2]: 46.5 nM
Substance: Trastuzumab-DE (S239D/I332E) from Xencor
